± gives the standard deviation.

A short description of the data set: collision cross section of modified peptide (TIMS, N2, iRT-aligned); higher = larger / more extended gas-phase ion. Put shortly:
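On a timsTOF Pro/HT (dda-PASEF, nitrogen, ~2.4 mbar), synthetic peptide pools were analysed after a 120-min nanoflow C18 separation at 60 °C and identified in MaxQuant. Three reference ions served for 1/K0 calibration, with run-wise alignment to the median iRT peptide deviation. Collision cross section comes from the Mason-Schamp equation, using the most abundant feature per charge state averaged over 1–3 technical replicates.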

[1] abbreviates: charge state: 2, modification: Phospho (Y).
Setting [2] is: charge state: 2, modification: Formyl.
Setting [3] is: charge state: 2, modification: Methyl (K).
[4] abbreviates: charge state: 3, modification: Methyl (K).
The mark [5] stands for this setting: charge state: 2, modification: Malonyl.
Setting [6] is: charge state: 2, modification: Propionyl.
Setting [7] is: charge state: 3, modification: Propionyl.
[8] abbreviates: charge state: 2, modification: Succinyl.
[9] abbreviates: charge state: 3, modification: Succinyl.
Where [10] appears, read: charge state: 2, modification: Acetyl (K).
The mark [11] stands for this setting: charge state: 3, modification: Acetyl (K).
Setting [12] is: charge state: 2, modification: Glutarylation.
Setting [13] is: charge state: 3, modification: Hydroxyproline.
[14] abbreviates: charge state: 2, modification: hydroxyisobutyryl.
Where [15] appears, read: charge state: 3, modification: hydroxyisobutyryl.
The mark [16] stands for this setting: charge state: 2, modification: Dimethyl (K).
Where [17] appears, read: charge state: 3, modification: Dimethyl (K).
The mark [18] stands for this setting: charge state: 2, modification: Biotin.
[19] abbreviates: charge state: 3, modification: Biotin.
[20] abbreviates: charge state: 2, modification: GlyGly (K).
Setting [21] is: charge state: 3, modification: GlyGly (K).
[22] abbreviates: charge state: 3, modification: Glutarylation.
Where [23] appears, read: charge state: 2, modification: Nitro (Y).
[24] abbreviates: charge state: 3, modification: Methyl (R).
Setting [25] is: charge state: 3, modification: Trimethyl (K).

Regarding AYGELPEHAK [_AY(Phospho (Y))GELPEHAK_], the collision cross section is listed as 362.96 ± 0.74 Å² under setting [1] and 450.05 Å² (charge state: 3, modification: Phospho (Y)).

On to IQQELQTAKK [_IQQELQTAK(Formyl)K_], for which, under setting [2], the collision cross section was found to be 369.08 ± 0.89 Å².

For the substance “SDSGKPYYYNSQTK [_SDSGK(Methyl (K))PYYYNSQTK_]”, the collision cross section is, setting by setting: under setting [3], 422.21 Å²; under setting [4], 475.71 ± 2.9 Å².

On to LDEKENLSAK [_LDEK(Malonyl)ENLSAK_], for which, under setting [5], the collision cross section is on record as 361.65 ± 0.75 Å².

Turning to “PSVGSQSNQAGQGKR [_PSVGSQSNQAGQGK(Propionyl)R_]”, the collision cross section was determined as 412.6 ± 0.64 Å² under setting [6] and 473.2 ± 1.4 Å² under setting [7].

For the setting “charge state: 3, modification: Formyl”, “HELQANCYEEVKDR [_HELQANCYEEVK(Formyl)DR_]” gave a collision cross section of 490.46 Å².

On to “SSGPGGQNVNKVNSK [_SSGPGGQNVNK(Succinyl)VNSK_]”, for which the collision cross section came out at 404.66 ± 0.55 Å² under setting [8] and 443.1 ± 4 Å² under setting [9].

Regarding “DESFLGKLGGTLAR [_DESFLGK(Succinyl)LGGTLAR_]”, the collision cross section is 416.2 ± 0.36 Å² under setting [8] and 490.1 ± 2.1 Å² under setting [9].

For the substance “SLEEEGAAHSGKR [_SLEEEGAAHSGK(Acetyl (K))R_]”, the collision cross section runs as follows: under setting [10], 412.49 ± 2.4 Å²; under setting [11], 476.34 ± 2.4 Å².

In turn, ILDLKTGTVK [_ILDLK(Acetyl (K))TGTVK_] displayed a collision cross section under setting [10] of 355.21 ± 0.89 Å².

Regarding “DKALPLEAEVAPVK [_DK(Acetyl (K))ALPLEAEVAPVK_]”, the collision cross section under setting [10] worked out at 407.82 ± 5.1 Å².

“LLEEEDSKLK [_LLEEEDSK(Gluratylation)LK_]” gave a collision cross section under setting [12] of 387.79 ± 0.61 Å².

With ASEALLKQLK [_ASEALLK(Propionyl)QLK_], the collision cross section under setting [6] came to 375.9 ± 0.65 Å².

As to SKLLFSNTAAQK [_SK(Crotonyl)LLFSNTAAQK_], under “charge state: 2, modification: Crotonyl”, the collision cross section was 402.06 ± 0.79 Å².

In turn, “GSIGFPGFPGANGEKGGR [_GSIGFP(Hydroxyproline)GFPGANGEKGGR_]” gave a collision cross section under setting [13] of 489.41 ± 4 Å².

“FGTINIVHPKLGSYTK [_FGTINIVHPK(Succinyl)LGSYTK_]” displayed a collision cross section under setting [8] of 474.47 ± 1.3 Å² and a collision cross section under setting [9] of 560.66 ± 0.77 Å².

For “VSPASSVDSNIPSSQGYKK [_VSPASSVDSNIPSSQGYK(hydroxyisobutyryl)K_]”, the collision cross section reads like this: under setting [14], 468.85 ± 0.27 Å²; under setting [15], 562.43 ± 0.42 Å².

On to “IINEPTAAAIAYGLDKK [_IINEPTAAAIAYGLDK(hydroxyisobutyryl)K_]”, for which the collision cross section is, setting by setting: under setting [14], 464.51 ± 4.5 Å²; under setting [15], 564.39 ± 3 Å².

For “VTLEVGKVIQQGR [_VTLEVGK(Dimethyl (K))VIQQGR_]”, the collision cross section stood at 422.85 ± 1.4 Å² under setting [16] and 464.75 ± 1.6 Å² under setting [17].

“VDVEVPDVSLEGPEGKLK [_VDVEVPDVSLEGPEGK(Formyl)LK_]” gave a collision cross section under setting [2] of 460.51 ± 1.4 Å².

ASNAAVKLAESK [_ASNAAVK(Biotin)LAESK_] came in with a collision cross section under setting [18] of 402.96 ± 11 Å² and a collision cross section under setting [19] of 464.87 Å².

“ITESVAETAQTIKK [_ITESVAETAQTIK(GlyGly (K))K_]”: the collision cross section is listed as 453.63 ± 0.95 Å² under setting [20] and 514.8 ± 1.1 Å² under setting [21].

As to “LDHLAEKFR [_LDHLAEK(hydroxyisobutyryl)FR_]”, the collision cross section runs as follows: under setting [14], 375.94 ± 0.8 Å²; under setting [15], 444.1 ± 2 Å².

With “DSSPTTNSKLSALQR [_DSSPTTNSK(Gluratylation)LSALQR_]”, the collision cross section came out at 431.44 ± 1.5 Å² under setting [12] and 500.2 ± 1 Å² under setting [22].

Substance “IHVQSSSDSSDEPAEKR [_IHVQSSSDSSDEPAEK(Propionyl)R_]” came in with a collision cross section under setting [7] of 506.45 ± 1.4 Å².

Regarding “SGNLTEDDKHNNAK [_SGNLTEDDK(Gluratylation)HNNAK_]”, the collision cross section under setting [12] amounted to 428.34 ± 1.5 Å² and the collision cross section under setting [22] was 486.64 ± 2.8 Å².

For the substance CQGGQETQEYR [_CQGGQETQEY(Nitro (Y))R_], the collision cross section under setting [23] amounted to 375.36 ± 1.3 Å².

With LLRGVGGSHGR [_LLR(Methyl (R))GVGGSHGR_], the collision cross section reads like this: (charge state: 2, modification: Methyl (R)) 374.24 Å²; under setting [24], 456.7 ± 11 Å².

Consider FYTEDSPGLK [_FY(Phospho (Y))TEDSPGLK_], for which, under setting [1], the collision cross section is 366.92 ± 0.064 Å².

On to “IVSGKDYNVTANSK [_IVSGK(Trimethyl (K))DYNVTANSK_]”, for which the collision cross section reads like this: (charge state: 2, modification: Trimethyl (K)) 419.62 ± 1.6 Å²; under setting [25], 475.29 ± 2.4 Å².

Regarding “LQEKVESAQSEQK [_LQEK(Acetyl (K))VESAQSEQK_]”, the collision cross section is 412.85 ± 1.8 Å² under setting [10] and 502.13 ± 0.084 Å² under setting [11].

For the substance “DTPTSAGPNSFNKGK [_DTPTSAGPNSFNK(Dimethyl (K))GK_]”, the collision cross section was determined as 406.79 ± 1.1 Å² under setting [16] and 455.12 ± 1.6 Å² under setting [17].

Substance “SSFAYKDQNENR [_SSFAYK(hydroxyisobutyryl)DQNENR_]” displayed a collision cross section under setting [14] of 405.04 ± 0.3 Å².

Take “DYSSGFGGKYGVQADR [_DYSSGFGGK(Malonyl)YGVQADR_]”: the collision cross section under setting [5] stood at 435.88 ± 0.59 Å².

Take “DTGEKLTVAENEAETK [_DTGEK(Gluratylation)LTVAENEAETK_]”: the collision cross section worked out at 451.19 ± 1.1 Å² under setting [12] and 527.35 Å² under setting [22].

As for KVTLSVLSR [_KVT(HexNAc (ST))LSVLSR_], the collision cross section is reported as 375.11 ± 0.13 Å² (charge state: 2, modification: HexNAc (ST)) and 463.47 ± 1 Å² (charge state: 3, modification: HexNAc (ST)).

Take “LLFSNTAAQKLR [_LLFSNTAAQK(Acetyl (K))LR_]”: the collision cross section is on record as 400.1 ± 2.9 Å² under setting [10] and 478.35 ± 0.83 Å² under setting [11].

“INNFSADIKDSK [_INNFSADIK(Dimethyl (K))DSK_]” showed a collision cross section under setting [16] of 406.51 ± 0.23 Å² and a collision cross section under setting [17] of 455.06 ± 5.9 Å².

With “GTVPDDAVEALADSLGKK [_GTVPDDAVEALADSLGK(hydroxyisobutyryl)K_]”, the collision cross section is, setting by setting: under setting [14], 460.24 ± 0.81 Å²; under setting [15], 537.74 ± 2.1 Å².

On to IQQELQTAKK [_IQQELQTAK(GlyGly (K))K_], for which the collision cross section under setting [20] is recorded as 381.49 ± 0.89 Å² and the collision cross section under setting [21] turned out to be 434.95 ± 2 Å².

As for “VQGGALEDSQLVAGVAFKK [_VQGGALEDSQLVAGVAFK(Acetyl (K))K_]”, the collision cross section runs as follows: under setting [10], 468.5 Å²; under setting [11], 554.41 Å².

Turning to “SDSGKPYYYNSQTK [_SDSGK(Trimethyl (K))PYYYNSQTK_]”, under setting [25], the collision cross section amounted to 473.28 ± 2.4 Å².

In turn, “VFIGNLNTLVVKK [_VFIGNLNTLVVK(Malonyl)K_]” yielded a collision cross section under setting [5] of 419.59 ± 0.57 Å².

Under setting [2], ASNAAVKLAESK [_ASNAAVK(Formyl)LAESK_] gave a collision cross section of 365.07 ± 0.39 Å².

GEYFGEK [_GEY(Phospho (Y))FGEK_] returned a collision cross section under setting [1] of 321.93 ± 0.65 Å².

“ATVASSTQKFQDLGVK [_ATVASSTQK(Formyl)FQDLGVK_]” had a collision cross section under setting [2] of 442.05 ± 0.78 Å².

The substance TTEETSKPK [_TTEETSK(Acetyl (K))PK_] displayed a collision cross section under setting [10] of 334.91 ± 0.21 Å².

On to “DAIHFYNKSLAEHR [_DAIHFYNK(Malonyl)SLAEHR_]”, for which, for the setting “charge state: 3, modification: Malonyl”, the collision cross section amounted to 505.96 ± 0.89 Å².

Regarding “GFPGAPGLPGLKGHR [_GFP(Hydroxyproline)GAPGLPGLKGHR_]”, the collision cross section under setting [13] was 478.5 ± 1.8 Å².

As to “VYIASSSGSTAIKK [_VYIASSSGSTAIK(GlyGly (K))K_]”, the collision cross section is 437.45 ± 1.4 Å² under setting [20] and 498.73 ± 3.9 Å² under setting [21].

Turning to KYEEIDNAPEER [_K(Butyryl)YEEIDNAPEER_], the collision cross section worked out at 413.71 ± 1.1 Å² (charge state: 2, modification: Butyryl) and 492.73 ± 3.5 Å² (charge state: 3, modification: Butyryl).

Under setting [23], “VYVGNLGTGAGK [_VY(Nitro (Y))VGNLGTGAGK_]” registered a collision cross section of 354.85 ± 1.5 Å².

For “IINEPTAAAIAYGLDKK [_IINEPTAAAIAYGLDK(Methyl (K))K_]”, the collision cross section is, setting by setting: under setting [3], 488.76 ± 3.7 Å²; under setting [4], 550.89 ± 0.34 Å².

As for “IVSGKDYNVTANSK [_IVSGK(Biotin)DYNVTANSK_]”, the collision cross section by setting is: under setting [18], 432.72 ± 2.7 Å²; under setting [19], 508.73 Å².

Take “DLSTVEALQNLKNLK [_DLSTVEALQNLK(Gluratylation)NLK_]”: under setting [22], the collision cross section came out at 545.2 Å².

For the substance “DSSPTTNSKLSALQR [_DSSPTTNSK(Methyl (K))LSALQR_]”, the collision cross section reads like this: under setting [3], 419.3 Å²; under setting [4], 475.79 ± 3.5 Å².

In turn, “VSFLSALEEYTK [_VSFLSALEEY(Nitro (Y))TK_]” showed a collision cross section under setting [23] of 400.94 ± 0.73 Å².

As to “GATVTRGVPPPPTVR [_GATVTR(Methyl (R))GVPPPPTVR_]”, under setting [24], the collision cross section worked out at 512.38 ± 1.6 Å².
